The numbers were not newly measured in paper PMC7590900, which cites them from elsewhere.

In the data set the target is CXCR7 (Homo sapiens) (UniProt P25106).
Sequence of UniProt P25106 (P25106 whole entry): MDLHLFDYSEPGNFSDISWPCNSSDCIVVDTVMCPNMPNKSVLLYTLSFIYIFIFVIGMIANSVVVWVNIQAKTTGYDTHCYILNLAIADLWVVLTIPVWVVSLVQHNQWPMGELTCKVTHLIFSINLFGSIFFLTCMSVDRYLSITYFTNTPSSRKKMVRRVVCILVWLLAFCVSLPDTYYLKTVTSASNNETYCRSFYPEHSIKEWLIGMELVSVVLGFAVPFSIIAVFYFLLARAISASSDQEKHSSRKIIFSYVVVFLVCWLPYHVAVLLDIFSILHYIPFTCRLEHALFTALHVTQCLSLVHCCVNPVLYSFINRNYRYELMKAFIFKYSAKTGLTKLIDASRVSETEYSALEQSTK

As to CXCL11 (from UniProt O14625), the equilibrium dissociation constant (Kd) – broadly, the concentration at which binding is half-saturated – is 3.5 nM.
